Data reported in paper PMC5046105, “Improved affinity at the cost of decreased specificity: a recurring theme in PDZ-peptide interactions” (Scientific Reports, 2016).
Ends that are not written are not given here.

T1: pWT PDZ2 (pseudo wild type SAP97 PDZ2, I342W/C378A) (Homo sapiens, UniProt Q12959, C378A/I342W)
T1 construct: constituting SAP97 residues 311–407 and the mutations I342W and C372A; His-tagged lipoyl protein domain (N, cleaved yes); made in house
T1 sequence (Q12959 311-407 I342W/C378A): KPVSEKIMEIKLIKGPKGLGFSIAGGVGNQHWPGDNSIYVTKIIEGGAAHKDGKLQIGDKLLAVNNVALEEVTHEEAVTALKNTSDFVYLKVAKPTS

T2: PDZØ9 (pWT SAP97 PDZ2 L391F/K392M) (Homo sapiens, UniProt Q12959, C378A/I342W/K392M/L391F)
T2 construct: constituting SAP97 residues 311–407 and the mutations I342W and C372A; His-tagged lipoyl protein domain (N, cleaved yes); made in house
T2 sequence (Q12959 311-407 I342W/C378A/L391F/K392M): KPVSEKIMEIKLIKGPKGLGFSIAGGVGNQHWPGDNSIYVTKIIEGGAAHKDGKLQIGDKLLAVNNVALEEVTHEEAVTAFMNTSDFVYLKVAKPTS

T3: pWT PDZ2 L391F (Homo sapiens, UniProt Q12959, C378A/I342W/L391F)
T3 construct: constituting SAP97 residues 311–407 and the mutations I342W and C372A; His-tagged lipoyl protein domain (N, cleaved yes); made in house
T3 sequence (Q12959 311-407 I342W/C378A/L391F): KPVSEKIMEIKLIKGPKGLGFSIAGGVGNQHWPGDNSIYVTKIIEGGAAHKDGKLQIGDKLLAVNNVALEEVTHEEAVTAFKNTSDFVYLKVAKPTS

T4: pWT PDZ2 K392M (Homo sapiens, UniProt Q12959, C378A/I342W/K392M)
T4 construct: constituting SAP97 residues 311–407 and the mutations I342W and C372A; His-tagged lipoyl protein domain (N, cleaved yes); made in house
T4 sequence (Q12959 311-407 I342W/C378A/K392M): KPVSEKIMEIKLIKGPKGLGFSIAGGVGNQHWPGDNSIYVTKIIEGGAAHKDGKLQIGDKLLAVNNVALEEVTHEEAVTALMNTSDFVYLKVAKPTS


How the values were obtained:
[1] = molecular target: T1, pWT PDZ2 (pseudo wild type SAP97 PDZ2, I342W/C378A); test: Stopped-flow binding kinetics, peptide with pWT PDZ2
Procedure: (§1) The basic experimental parameters determined were the rate constants of association (kon) and dissociation (koff) for each peptide and for all PDZ variants, respectively, in a procedure described in Fig. 2 for the interaction between PDZØ9 and the EKKHTLL peptide as an example.
(§2) Figure 2 Determination of the two rate constants kon and koff for PDZØ9 binding to the EKKHTLL peptide. kon and koff were determined in separate experiments using stopped-flow spectroscopy and monitoring the change in Trp fluorescence upon binding. (a) The experimental trace was obtained by averaging of three individual experiments in which 11 μM of the EKKHTLL peptide was mixed with 1 μM PDZØ9. The trace was fitted to a single exponential function to obtain the observed rate constant, kobs. […] (c) In a displacement reaction a pre-formed complex between PDZØ9 (1 μM) and the EKKHTLL peptide (2 μM) was mixed with a large excess of dansyl-labeled peptide corresponding to the C-terminal […] of HPV18 E6 (150 μM). […] At high concentrations of dansylated peptide, none of the dissociated EKKHTLL will re-bind, and fitting to a single exponential function returns a kobs value which is equal to the dissociation rate constant, koff, of the pre-formed complex.
(§3) All of the stopped-flow experiments conducted in order to measure the rate constants for the peptide/PDZ interactions, were performed on an SX-20 MV stopped-flow spectrometer (Applied Photophysics Leatherhead, UK) at 10 °C in 50 mM potassium phosphate buffer, pH 7.5. Fluorescence was monitored using the change in emission of Trp342 in the PDZ variants (excitation at 280 nm; emission at 330 ± 30 nm). The peptides were N-acetylated (Ontores Biotechnologies) and the concentration of the respective stock solution was determined with either absorbance, quantitative amino acid analysis or direct detect (EMD Millipore). The rate constants of association, kon, and dissociation, koff, were determined in separate experiments. […] For each PDZ variant the kobs values were plotted versus the concentration of peptide and fitted to the general equation for a reversible bimolecular interaction[38][39] from which kon was derived. The koff was measured in a displacement experiment in which a pre-formed complex of PDZ variant (1 μM) and peptide (2 μM) was mixed with high concentrations of a dansylated RRRETQV-peptide (100, and 150 μM), which competes with the unlabelled peptide for binding to the PDZ. […] The kobs value at high peptide concentration is equal to the overall koff value, as described previously.

[2] = molecular target: T2, PDZØ9 (pWT SAP97 PDZ2 L391F/K392M); test: Stopped-flow binding kinetics, peptide with PDZØ9
Procedure: as §1, §2, §3

pWT PDZ2 L391F = molecular target: T3, pWT PDZ2 L391F; test: Stopped-flow binding kinetics, peptide with pWT PDZ2 L391F
Procedure: as §1, §2, §3

pWT PDZ2 K392M = molecular target: T4, pWT PDZ2 K392M; test: Stopped-flow binding kinetics, peptide with pWT PDZ2 K392M
Procedure: as §1, §2, §3

[3] = molecular target: PDZØ9, engineered variant (L391F/K392M) of pWT SAP97 PDZ2 (human) (UniProt Q12959); test: stopped-flow spectroscopy
[4] = molecular target: Pseudo wild type SAP97 PDZ2 (second PDZ domain of synapse associated protein 97, I342W/C378A) (human) (UniProt Q12959); test: stopped-flow spectroscopy
pWT PDZ2 K392M (human) = pWT PDZ2 K392M (human) (UniProt Q12959); test: stopped-flow spectroscopy
pWT PDZ2 L391F (human) = pWT PDZ2 L391F (human) (UniProt Q12959); test: stopped-flow spectroscopy
[5] = Kd = koff/kon, pH 7.5, 10 °C, ± propagated standard error
[6] = Trp342 fluorescence, 1 µM PDZ, peptide 2–40 µM, N-acetylated peptide, 50 mM potassium phosphate pH 7.5, 10 °C, value ± standard error
[7] = displacement of pre-formed complex (1 µM PDZ, 2 µM peptide) with 100 and 150 µM dansylated RRRETQV peptide, pH 7.5, 10 °C, value ± standard error

| Molecule | koff [3] [s⁻¹] | kon [3] [M⁻¹ s⁻¹] | koff [4] [s⁻¹] | kon [4] [M⁻¹ s⁻¹] | koff (pWT PDZ2 K392M (human)) [s⁻¹] | kon (pWT PDZ2 K392M (human)) [M⁻¹ s⁻¹] | koff (pWT PDZ2 L391F (human)) [s⁻¹] | kon (pWT PDZ2 L391F (human)) [M⁻¹ s⁻¹] | other results |
| --- | --- | --- | --- | --- | --- | --- | --- | --- | --- |
| Ac-YRRESAI [YRRESAI] |  |  |  |  |  |  |  |  | Kd [1, 5]: 4600 ± 100 nM; kon [1, 6]: 1.9e+07 ± 500000 M⁻¹ s⁻¹; koff [1, 7]: 87 ± 0.5 s⁻¹; Kd ([2]; Kd = koff/kon, stopped-flow, pH 7.5, 10 °C, ± propagated standard error): 770 ± 10 nM; koff ([2]; displacement of pre-formed complex (1 µM PDZ, 2 µM peptide) with 100 and 150 µM dansylated RRRETQV peptide, stopped-flow, pH 7.5, 10 °C, value ± standard error): 17 ± 0.2 s⁻¹; kon ([2]; stopped-flow, Trp342 fluorescence, 1 µM PDZ, peptide 2–40 µM, N-acetylated peptide, 50 mM potassium phosphate pH 7.5, 10 °C, value ± standard error): 2.2e+07 ± 200000 M⁻¹ s⁻¹; Kd (pWT PDZ2 L391F; [5]): 790 ± 10 nM; kon (pWT PDZ2 L391F; [6]): 1.9e+07 ± 100000 M⁻¹ s⁻¹; koff (pWT PDZ2 L391F; [7]): 15 ± 0.2 s⁻¹; Kd (pWT PDZ2 K392M; [5]): 4200 ± 100 nM; kon (pWT PDZ2 K392M; Trp342 fluorescence, 1 µM PDZ, peptide 2–40 µM, N-acetylated peptide, 50 mM potassium phosphate pH 7.5, 10 °C, value ± standard error (EKKHTLL: mean of two experiments)): 2.5e+07 ± 700000 M⁻¹ s⁻¹; koff (pWT PDZ2 K392M; [7]): 105 ± 0.5 s⁻¹ |
| dansyl-labeled peptide: dansyl-labeled peptide corresponding to the C-terminal six residues of HPV18 E6, competitor in displacement experiments (RRRETQV; also: dansyl label, position not given here) [reference compound] |  |  |  |  |  |  |  |  | kobs, binding of free PDZØ9 to the dansyl-labeled peptide ([2]; 150 μM dansyl-labeled peptide, initial part of displacement trace): ~1000 s⁻¹ |
| SARSTDV [SARSTDV peptide (C-terminus of anoctamin-9)] | 3.4 | 1.3e+07 | 26 | 1.6e+07 | 25 | 1.2e+07 | 4 | 1.8e+07 |  |
| Ac-RSISTDV [RSISTDV peptide (C-terminus of protein FAM163B)] | 4.3 | 1.7e+07 | 26 | 2.1e+07 | 31 | 1.7e+07 | 4.3 | 2.4e+07 |  |
| Ac-TSRETDL [TSRETDL peptide (C-terminus of potassium voltage-gated channel subfamily A member 5, Kv1.5)] | 2.6 | 1.5e+07 | 71 | 3.3e+07 | 62 | 1.5e+07 | 3.8 | 1.8e+07 |  |
| Ac-NSKETVV [NSKETVV peptide (C-terminus of E3 ubiquitin-protein ligase MARCH3)] | 1.6 | 1e+07 | 8.6 | 1.3e+07 | 7.7 | 9.7e+06 | 1.9 | 1.3e+07 |  |
| Ac-YRRESAI [YRRESAI peptide (C-terminus of inward rectifier potassium channel 4, Kir2.3)] | 17 | 2.2e+07 | 87 | 1.9e+07 | 105 | 2.5e+07 | 15 | 1.9e+07 |  |
| Ac-EKKHTLL [EKKHTLL peptide (C-terminus of E9PN86_HUMAN, partial transcript of EIF3M_HUMAN)] | 7.9 | 1.4e+07 | 112 | 1.2e+07 | 157 | 1.1e+07 | 7.1 | 1.1e+07 |  |
| Ac-KRKETLV [KRKETLV peptide (C-terminus of neuroepithelial cell-transforming gene 1 protein, Net1)] | 0.6 | 8e+06 | 3 | 6.4e+06 | 3.4 | 7.2e+06 | 0.6 | 7.4e+06 | Kd [3]: 80 nM; Kd [4]: 470 nM; Kd (pWT PDZ2 K392M (human)): 470 nM; Kd (pWT PDZ2 L391F (human)): 80 nM |
| Ac-VSKETPL [VSKETPL peptide (C-terminus of mitogen-activated protein kinase 12, p38γ)] | 6.3 | 8.4e+06 | 154 | 4e+07 | 150 | 2.4e+07 | 8.8 | 1.1e+07 |  |
